Source: patent publication US20240409906, “INTEGRASES, LANDING PAD ARCHITECTURES, AND ENGINEERED CELLS COMPRISING THE SAME” (Asimov Inc., published 2024)

Tests used:
Test in all cases: cell_activity; attB x attP EGFP inversion reporter, HEK293FT
Int29 = target: T1, Int29 (Bacillus weihenstephanensis KBAB4); conditions: tags: C-terminal GS linker-SV40 NLS; chain copies: 4
T1 chain: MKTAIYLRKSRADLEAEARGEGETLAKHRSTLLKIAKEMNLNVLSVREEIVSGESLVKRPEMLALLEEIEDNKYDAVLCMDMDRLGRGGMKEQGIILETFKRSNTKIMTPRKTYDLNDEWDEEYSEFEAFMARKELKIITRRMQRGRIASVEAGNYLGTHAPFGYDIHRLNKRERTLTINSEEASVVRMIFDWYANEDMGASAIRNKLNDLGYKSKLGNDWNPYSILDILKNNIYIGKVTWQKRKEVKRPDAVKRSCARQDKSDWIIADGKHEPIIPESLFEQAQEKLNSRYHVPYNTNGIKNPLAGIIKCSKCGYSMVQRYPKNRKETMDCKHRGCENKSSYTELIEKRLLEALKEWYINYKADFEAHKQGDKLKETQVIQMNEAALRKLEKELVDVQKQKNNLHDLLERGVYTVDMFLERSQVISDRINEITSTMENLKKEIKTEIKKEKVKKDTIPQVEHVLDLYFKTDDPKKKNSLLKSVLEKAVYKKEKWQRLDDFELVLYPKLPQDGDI

Int30 = target: T2, Int30 (Bacillus cereus AH187); conditions: tags: C-terminal GS linker-SV40 NLS; chain copies: 4
T2 chain: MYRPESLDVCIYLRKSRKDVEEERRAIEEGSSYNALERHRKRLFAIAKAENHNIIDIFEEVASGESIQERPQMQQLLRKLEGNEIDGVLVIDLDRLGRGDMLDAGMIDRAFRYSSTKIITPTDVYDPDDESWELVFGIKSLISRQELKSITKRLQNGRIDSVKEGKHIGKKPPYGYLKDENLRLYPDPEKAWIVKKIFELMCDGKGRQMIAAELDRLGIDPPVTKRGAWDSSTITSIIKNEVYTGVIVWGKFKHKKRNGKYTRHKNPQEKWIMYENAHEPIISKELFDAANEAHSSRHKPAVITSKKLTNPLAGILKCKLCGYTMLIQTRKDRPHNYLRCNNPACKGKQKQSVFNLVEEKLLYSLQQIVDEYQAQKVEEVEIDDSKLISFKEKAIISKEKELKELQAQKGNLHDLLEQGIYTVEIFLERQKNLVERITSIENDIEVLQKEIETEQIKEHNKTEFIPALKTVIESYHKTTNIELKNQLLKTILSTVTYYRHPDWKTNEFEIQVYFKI

Int23 = target: T3, Int23 (Clostridium difficile 630); conditions: tags: C-terminal GS linker-SV40 NLS
T3 chain: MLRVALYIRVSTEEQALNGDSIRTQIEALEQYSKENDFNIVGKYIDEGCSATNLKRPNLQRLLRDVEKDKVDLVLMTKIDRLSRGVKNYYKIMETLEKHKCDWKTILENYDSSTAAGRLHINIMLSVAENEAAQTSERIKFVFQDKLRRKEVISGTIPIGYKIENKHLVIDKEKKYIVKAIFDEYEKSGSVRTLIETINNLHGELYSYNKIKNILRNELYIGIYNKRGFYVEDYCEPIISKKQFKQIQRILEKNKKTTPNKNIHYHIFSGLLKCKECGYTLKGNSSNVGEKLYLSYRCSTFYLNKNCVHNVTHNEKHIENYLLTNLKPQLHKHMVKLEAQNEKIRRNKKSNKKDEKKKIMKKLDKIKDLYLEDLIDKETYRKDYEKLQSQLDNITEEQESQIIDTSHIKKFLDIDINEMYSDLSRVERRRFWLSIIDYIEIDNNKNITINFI

Int5 = target: T4, Int5 (Streptomyces phage PhiK38-1); conditions: tags: C-terminal GS linker-SV40 NLS
T4 chain: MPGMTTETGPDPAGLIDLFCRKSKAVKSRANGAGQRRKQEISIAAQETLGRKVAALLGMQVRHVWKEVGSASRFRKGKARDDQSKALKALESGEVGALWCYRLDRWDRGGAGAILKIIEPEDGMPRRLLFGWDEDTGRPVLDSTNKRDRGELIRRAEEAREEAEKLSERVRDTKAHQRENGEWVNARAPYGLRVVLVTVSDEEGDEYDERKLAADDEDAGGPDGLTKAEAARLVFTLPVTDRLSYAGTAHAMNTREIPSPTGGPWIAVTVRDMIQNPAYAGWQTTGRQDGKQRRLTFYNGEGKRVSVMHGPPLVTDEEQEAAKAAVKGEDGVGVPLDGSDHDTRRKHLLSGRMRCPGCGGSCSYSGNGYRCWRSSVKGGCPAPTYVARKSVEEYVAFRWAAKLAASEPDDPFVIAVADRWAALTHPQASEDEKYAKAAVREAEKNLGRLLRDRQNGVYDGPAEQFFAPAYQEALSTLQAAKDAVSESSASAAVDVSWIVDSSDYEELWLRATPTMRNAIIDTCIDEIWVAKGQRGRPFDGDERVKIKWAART

Int4 = target: T5, Int4 (Streptococcus equi subsp. equi 4047); conditions: tags: C-terminal GS linker-SV40 NLS
T5 chain: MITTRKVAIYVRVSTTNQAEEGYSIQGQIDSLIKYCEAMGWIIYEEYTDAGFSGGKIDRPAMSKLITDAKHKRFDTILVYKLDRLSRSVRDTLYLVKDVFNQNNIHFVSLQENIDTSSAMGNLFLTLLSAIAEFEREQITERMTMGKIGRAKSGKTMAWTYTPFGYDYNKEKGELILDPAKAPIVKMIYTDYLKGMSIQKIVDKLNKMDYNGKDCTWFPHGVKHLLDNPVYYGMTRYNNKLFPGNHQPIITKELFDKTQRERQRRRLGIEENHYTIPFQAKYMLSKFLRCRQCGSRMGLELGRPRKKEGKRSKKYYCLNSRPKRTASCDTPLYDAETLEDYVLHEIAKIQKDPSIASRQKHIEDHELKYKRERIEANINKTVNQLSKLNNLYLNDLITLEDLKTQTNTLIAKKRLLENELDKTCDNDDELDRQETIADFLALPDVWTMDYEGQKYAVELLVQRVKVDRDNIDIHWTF

Int32 = target: T6, Int32 (Rhodococcus jostii RHA1); conditions: tags: C-terminal GS linker-SV40 NLS; chain copies: 4
T6 chain: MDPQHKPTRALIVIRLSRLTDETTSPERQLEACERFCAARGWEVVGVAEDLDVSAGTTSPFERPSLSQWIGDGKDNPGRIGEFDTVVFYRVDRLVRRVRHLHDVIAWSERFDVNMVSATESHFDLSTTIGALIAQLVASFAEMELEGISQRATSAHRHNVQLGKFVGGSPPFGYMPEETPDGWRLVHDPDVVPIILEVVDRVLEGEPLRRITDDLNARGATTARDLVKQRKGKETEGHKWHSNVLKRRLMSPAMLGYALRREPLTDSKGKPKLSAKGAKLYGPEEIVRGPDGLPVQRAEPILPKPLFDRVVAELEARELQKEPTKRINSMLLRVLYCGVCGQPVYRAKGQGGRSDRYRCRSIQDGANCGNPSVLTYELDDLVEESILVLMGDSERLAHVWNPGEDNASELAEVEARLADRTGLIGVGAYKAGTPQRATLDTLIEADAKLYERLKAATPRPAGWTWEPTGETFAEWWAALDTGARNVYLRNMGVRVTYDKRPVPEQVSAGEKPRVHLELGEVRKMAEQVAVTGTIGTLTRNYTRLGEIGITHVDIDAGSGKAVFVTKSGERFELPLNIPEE

Int26 = Int26 (Clostridium botulinum F str. Langeland); conditions: tags: C-terminal GS linker-SV40 NLS

B1: Int29 attB (dsDNA)
DNA 1: TTTGTAGCCATTAGGCGCATTAGGTTGACGCCATTAAGCCCTAAAGCATCATTCGTCGAAAC
DNA 2: GTTTCGACGAATGATGCTTTAGGGCTTAATGGCGTCAACCTAATGCGCCTAATGGCTACAAA
binding signal (Int29): 2.92 fraction of Bxb1

B2: Int30 attP (dsDNA)
DNA 1: ATAATAGTGTATATGGTAGAGAATTAAACCAGTTTAATACTCCACCATGTACACGCAGTGAG
DNA 2: CTCACTGCGTGTACATGGTGGAGTATTAAACTGGTTTAATTCTCTACCATATACACTATTAT
binding signal (Int30): 1.29 fraction of Bxb1

B3: Int23 attP (dsDNA)
DNA 1: TATATAATTATTTGGACTAACATATAGTATCCACTTGGCTATTATTAGTTAGTCCAAATAAATA
DNA 2: TATTTATTTGGACTAACTAATAATAGCCAAGTGGATACTATATGTTAGTCCAAATAATTATATA
binding signal (Int23): 0.201 fraction of Bxb1

B4: Int5 attP (dsDNA)
DNA 1: CCCTAATACGCAAGTCGATAACTCTCCTGGGAGCGTTGACAACTTGCGCACCCTGATCTG
DNA 2: CAGATCAGGGTGCGCAAGTTGTCAACGCTCCCAGGAGAGTTATCGACTTGCGTATTAGGG
binding signal (Int5): 0.152 fraction of Bxb1

B5: Int4 attP (dsDNA)
DNA 1: CAAAAATTACAAAGTTTTCAACCCTTGATTTGAATTAGCGGTCAAATAATTTGTAATTCGTTT
DNA 2: AAACGAATTACAAATTATTTGACCGCTAATTCAAATCAAGGGTTGAAAACTTTGTAATTTTTG
binding signal (Int4): 1.85 fraction of Bxb1

B6: Int32 attB (dsDNA)
DNA 1: ATCGCGCAGAACGGTGCGGTGATCAGTGAGTACGCACCGGGCACGACACCGGCGAAGCATCG
DNA 2: CGATGCTTCGCCGGTGTCGTGCCCGGTGCGTACTCACTGATCACCGCACCGTTCTGCGCGAT
binding signal (Int32): 0.137 fraction of Bxb1

B7: Int32 attP (dsDNA)
DNA 1: CTATGTGGTGGTAATAGCGAGTAGGGGACTACTCGCTCCAGGTACATTAACACCATGGA
DNA 2: TCCATGGTGTTAATGTACCTGGAGCGAGTAGTCCCCTACTCGCTATTACCACCACATAG
binding signal (Int32): 0.137 fraction of Bxb1

B8: Int26 attB (dsDNA)
DNA 1: AGAAATAGACCTTTCAACTGGACAAGGTGCTGATAAAACTATGCAGCAAGTCTTAAGTAAA
DNA 2: TTTACTTAAGACTTGCTGCATAGTTTTATCAGCACCTTGTCCAGTTGAAAGGTCTATTTCT
binding signal (Int26): 0.204 fraction of Bxb1

B9: Int4 attB (dsDNA)
DNA 1: TTCCAAAGAGCGCCCAACGCGACCTGAAATTTGAATAAGACTGCTGCTTGTGTAAAGGCGATGATT
DNA 2: AATCATCGCCTTTACACAAGCAGCAGTCTTATTCAAATTTCAGGTCGCGTTGGGCGCTCTTTGGAA
binding signal (Int4): 1.85 fraction of Bxb1

B10: Int23 attB (dsDNA)
DNA 1: TATTCTAAGTAATGTAGTTTTACCACATCCACTAGGTCCGAGTAAACATAGAAATTCCCCT
DNA 2: AGGGGAATTTCTATGTTTACTCGGACCTAGTGGATGTGGTAAAACTACATTACTTAGAATA
binding signal (Int23): 0.201 fraction of Bxb1

B11: Int5 attB (dsDNA)
DNA 1: GAGCGCCGGATCAGGGAGTGGACGGCCTGGGAGCGCTACACGCTGTGGCTGCGGTCGGTGC
DNA 2: GCACCGACCGCAGCCACAGCGTGTAGCGCTCCCAGGCCGTCCACTCCCTGATCCGGCGCTC
binding signal (Int5): 0.152 fraction of Bxb1

B12: Int26 attP (dsDNA)
DNA 1: AAATATAACCTGTGTATTGAAACAAGGTGCTGATAAAACCCTTTCATAAACACAAGTAAATA
DNA 2: TATTTACTTGTGTTTATGAAAGGGTTTTATCAGCACCTTGTTTCAATACACAGGTTATATTT
binding signal (Int26): 0.204 fraction of Bxb1

B13: Int30 attB (dsDNA)
DNA 1: GTAATATGTTTGGATATGGGGAAGTGAATCAGTACAACCGCCACAGTACCCTCATGTCAGCC
DNA 2: GGCTGACATGAGGGTACTGTGGCGGTTGTACTGATTCACTTCCCCATATCCAAACATATTAC
binding signal (Int30): 1.29 fraction of Bxb1

B14: Int29 attP (dsDNA)
DNA 1: CGTCACCTTGTTGGCGTAATTAGATTTACTCCAACAGGGTGATGACAAAGCTAATGAATTTT
DNA 2: AAAATTCATTAGCTTTGTCATCACCCTGTTGGAGTAAATCTAATTACGCCAACAAGGTGACG
binding signal (Int29): 2.92 fraction of Bxb1
